{"source": "paper PMC6204900", "key": {"[1]": {"molecular_target": "human IGF-1 receptor (IGF-1R) on CHO-K1 cells stably transfected with pcDNA3-IGF-1R (human) (UniProt P08069)", "test": "radioligand binding; association kinetics; CHO-R+ cells (10^7/mL) in HEPES binding buffer pH 7.6 with about 0.03 nM 125I-labelled ligand at 15 °C; cells pelleted at time points; fit: association kinetics, one concentration of hot (GraphPad Prism 5) with the dissociation rate set; apparent constants"}, "[2]": {"molecular_target": "human insulin receptor isoform A (IR-A) on IM-9 lymphocytes (human (endogenous in IM-9)) (UniProt P06213)", "test": "radioligand binding; association kinetics; IM-9 cells (10^7/mL) in HEPES binding buffer pH 7.6 with about 0.03 nM 125I-labelled ligand at 15 °C; cells pelleted at time points; fit: association kinetics, one concentration of hot (GraphPad Prism 5) with the dissociation rate set; apparent constants"}, "[3]": {"molecular_target": "human insulin receptor isoform A (IR-A) on IM-9 lymphocytes (human (endogenous in IM-9)) (UniProt P06213)", "test": "radioligand binding; dissociation kinetics without cold ligand; IM-9 cells (3x10^7/mL) preincubated with about 0.03 nM 125I-labelled ligand at 15 °C ([…] insulin and analog, 4 h IGF-1), washed, diluted 40 times, 15 °C; one phase exponential decay"}, "[4]": {"molecular_target": "human IGF-1 receptor (IGF-1R) on CHO-K1 cells stably transfected with pcDNA3-IGF-1R (human) (UniProt P08069)", "test": "radioligand binding; dissociation kinetics without cold ligand; CHO-R+ cells (3x10^7/mL) preincubated with about 0.03 nM 125I-labelled ligand at 15 °C ([…] analog and IGF-1, 7 h insulin), washed, diluted 40 times, 15 °C; one phase exponential decay"}, "[5]": {"molecular_target": "IGF-1 receptor (in transfected mouse embryonic fibroblasts R+39) (human) (UniProt P08069)", "test": "radioligand binding; whole-cell receptor-binding assay on IGF-1R null mouse embryonic fibroblasts stably transfected with human IGF-1R; each binding curve in duplicate, Kd from at least three curves; details in the supporting information"}, "[6]": {"molecular_target": "insulin receptor isoform B (human) (UniProt P06213)", "test": "radioligand binding; whole-cell receptor-binding assay on IGF-1R null mouse embryonic fibroblasts stably transfected with human IR-B; each binding curve in duplicate, Kd from at least three curves; details in the supporting information"}, "[7]": {"molecular_target": "IGF-1 receptor (in transfected mouse embryonic fibroblasts R+39) (human) (UniProt P08069)"}, "[8]": {"molecular_target": "insulin receptor isoform A (human (endogenous in IM-9)) (UniProt P06213)", "test": "radioligand binding; whole-cell receptor-binding assay on human IM-9 lymphocytes (containing IR-A); each binding curve in duplicate, Kd from at least three curves; details in the supporting information"}}}
{"substance": "125I-[D-HisB24, GlyB31, TyrB32]-insulin (ligand)", "values": [{"measurement": "kon", "setting": "[1]", "result": "7.83e+07", "unit": "M⁻¹ s⁻¹"}, {"measurement": "kon", "setting": "[2]", "result": "5.87e+07", "unit": "M⁻¹ s⁻¹"}, {"measurement": "koff", "setting": "[3]", "result": "2.83e-05", "unit": "s⁻¹"}, {"measurement": "koff", "setting": "[4]", "result": 0.000107, "unit": "s⁻¹"}]}
{"substance": "[D-His^B24, Gly^B31, Tyr^B32]-insulin (from UniProt P01308 90-110) (ligand)", "values": [{"measurement": "Kd", "setting": "[5]", "result": 0.89, "unit": "nM"}]}
{"substance": "[D-His^B24]-des-(B27-B30)-tetrapeptide-B26-carboxamide insulin (from UniProt P01308 90-110) (ligand)", "values": [{"measurement": "Kd", "setting": "[6]", "result": 0.3, "unit": "nM"}]}
{"substance": "[Gly^B31, Tyr^B32]-insulin (from UniProt P01308 90-110; P01308 25-54) (ligand)", "values": [{"measurement": "autophosphorylation of IGF-1R (immunoblot), IGF-1R-transfected mouse fibroblasts, 10 nM ligand, against insulin; not significant in the analysis of variance", "setting": "[7]", "result": 3, "unit": "fold"}]}
{"substance": "[Tyr^B25, Phe^B26, Asn^B27, Lys^B28, Pro^B29, Gly^B31, Tyr^B32]-insulin (from UniProt P01308 90-110) (ligand)", "values": [{"measurement": "autophosphorylation of IGF-1R (immunoblot), IGF-1R-transfected mouse fibroblasts, 10 nM ligand, against insulin; not significant in the analysis of variance", "setting": "[7]", "result": 3, "unit": "fold"}]}
{"substance": "human insulin-like growth factor 1 (from UniProt P05019 49-118) (ligand)", "values": [{"measurement": "Kd", "setting": "[6]", "result": 224, "unit": "nM"}, {"measurement": "Kd", "setting": "[8]", "result": 31.5, "unit": "nM"}]}
{"substance": "insulin-like growth factor 2 (from UniProt P01344 25-91) (ligand)", "values": [{"measurement": "Kd", "setting": "[6]", "result": 35.5, "unit": "nM"}, {"measurement": "Kd", "setting": "[8]", "result": 2.92, "unit": "nM"}, {"measurement": "Kd", "setting": "[5]", "result": 2.32, "unit": "nM"}]}
